Reference: article PMC9352680, “A comprehensive thermodynamic model for RNA binding by the Saccharomyces cerevisiae Pumilio protein PUF4”
Changes are numbered by the printed parent chain. Names may count otherwise.

B1: Ic_S4_P5E.1_K5.1_C5.1_H5.1_A5.1_[A7G]_F5.1_[T8G]_[A10T]_T5.1 (ssRNA)
RNA: UUUGACAACUGAUCGUUCUUUCUUGUAUUGGUUUUCUUUCUCGAUCAGUUGUCUUU
B2: Ic_S4_P5E.1_K5.1_C5.1_H5.1_A5.1_[T5C]_[A7C]_F5.1_[T8A]_[T9C]_[A10G]_T5.1 (ssRNA)
RNA: B1 RNA with U28C, G30C, G31A, U32C, U33G
B3: Ic_S4_P5E.1_K5.1_C5.1_H5.1_A5.1_[T5A]_[A7C]_F5.1_[T8C]_[T9G]_[A10C]_T5.1 (ssRNA)
RNA: B1 RNA with U28A, G30C, G31C, U32G, U33C
B4: Ic_S4_P5E.1_K5.1_C5.1_H5.1_A5.1_[T5C]_[T6C]_F5.1_[T8C]_[T9A]_[A10T]_T5.1 (ssRNA)
RNA: B1 RNA with U28C, U29C, G30A, G31C, U32A
B5: Ic_S4_P5E.1_K5.1_C5.1_H5.1_A5.1_[T5C]_[A7G]_F5.1_[T8G]_T5.1 (ssRNA)
RNA: B1 RNA with U28C, U33A
B6: Ic_S4_P5E.1_K5.1_C5.1_H5.1_A5.1_[T6G]_[A7C]_F5.1_[T8C]_[T9A]_[A10T]_T5.1 (ssRNA)
RNA: B1 RNA with U29G, G30C, G31C, U32A
B7: Ic_S4_P5E.1_K5.1_C5.1_H5.1_A5.1_[T5C]_[T6A]_[A7T]_F5.1_[T8A]_[T9G]_[A10T]_T5.1 (ssRNA)
RNA: B1 RNA with U28C, U29A, G30U, G31A, U32G
B8: Ic_S4_P5E.1_K5.1_C5.1_H5.1_A5.1_[A7T]_F5.1_[T9C]_[A10T]_T5.1 (ssRNA)
RNA: B1 RNA with G30U, G31U, U32C
B9: Ic_S4_P5E.1_K5.1_C5.1_H5.1_A5.1_[T5C]_[T6C]_[A7T]_F5.1_[T8A]_[T9G]_[A10C]_T5.1 (ssRNA)
RNA: B1 RNA with U28C, U29C, G30U, G31A, U32G, U33C
B10: Ic_S4_P5E.1_K5.1_C5.1_H5.1_A5.1_[T5G]_[T6C]_[A7T]_F5.1_[T9A]_[A10C]_T5.1 (ssRNA)
RNA: B1 RNA with U28G, U29C, G30U, G31U, U32A, U33C
B11: Ic_S4_P5E.1_K5.1_C5.1_H5.1_A5.1_[T5A]_[A7C]_F5.1_[T8A]_[A10C]_T5.1 (ssRNA)
RNA: B1 RNA with U28A, G30C, G31A, U33C
B12: Ic_S4_P5E.1_K5.1_C5.1_H5.1_A5.1_[T5C]_[T6C]_[A7T]_F5.1_[T9A]_[A10G]_T5.1 (ssRNA)
RNA: B1 RNA with U28C, U29C, G30U, G31U, U32A, U33G
B13: Ic_S4_P5E.1_K5.1_C5.1_H5.1_A5.1_[T5C]_[T6A]_F5.1_[T8A]_[A10C]_T5.1 (ssRNA)
RNA: B1 RNA with U28C, U29A, G30A, G31A, U33C
B14: Ic_S4_P5E.1_K5.1_C5.1_H5.1_A5.1_[T6G]_[A7T]_F5.1_[T8A]_[T9C]_[A10C]_T5.1 (ssRNA)
RNA: B1 RNA with U29G, G30U, G31A, U32C, U33C
B15: Ic_S4_P5E.1_K5.1_C5.1_H5.1_A5.1_[T6C]_[A7T]_F5.1_[T9C]_[A10C]_T5.1 (ssRNA)
RNA: B1 RNA with U29C, G30U, G31U, U32C, U33C
B16: Ic_S4_P5E.1_K5.1_C5.1_H5.1_A5.1_[T5G]_[T6C]_F5.1_[T8C]_[A10T]_T5.1 (ssRNA)
RNA: B1 RNA with U28G, U29C, G30A, G31C
B17: Ic_S4_P5E.1_K5.1_C5.1_H5.1_A5.1_[T5G]_[T6C]_F5.1_[T8G]_[A10C]_T5.1 (ssRNA)
RNA: B1 RNA with U28G, U29C, G30A, U33C
B18: Ic_S4_P5E.1_K5.1_C5.1_H5.1_A5.1_[T5C]_[T6A]_[A7G]_F5.1_[A10G]_T5.1 (ssRNA)
RNA: B1 RNA with U28C, U29A, G31U, U33G
B19: Ic_S4_P5E.1_K5.1_C5.1_H5.1_A5.1_[T6C]_[A7C]_F5.1_[T8A]_[T9G]_[A10C]_T5.1 (ssRNA)
RNA: B1 RNA with U29C, G30C, G31A, U32G, U33C
B20: Ic_S4_P5E.1_K5.1_C5.1_H5.1_A5.1_[T5A]_[T6C]_F5.1_[T8G]_[T9C]_[A10T]_T5.1 (ssRNA)
RNA: B1 RNA with U28A, U29C, G30A, U32C
B21: Ic_S4_P5E.1_K5.1_C5.1_H5.1_A5.1_[T5C]_[A7C]_F5.1_[A10T]_T5.1 (ssRNA)
RNA: B1 RNA with U28C, G30C, G31U
B22: Ic_S4_P5E.1_K5.1_C5.1_H5.1_A5.1_[T5G]_[T6C]_[A7T]_F5.1_[T8C]_[T9G]_[A10T]_T5.1 (ssRNA)
RNA: B1 RNA with U28G, U29C, G30U, G31C, U32G
B23: Ic_S4_P5E.1_K5.1_C5.1_H5.1_A5.1_[T5C]_[T6A]_[A7T]_F5.1_[T8A]_[T9A]_[A10C]_T5.1 (ssRNA)
RNA: B1 RNA with U28C, U29A, G30U, G31A, U32A, U33C
B24: Ic_S4_P5E.1_K5.1_C5.1_H5.1_A5.1_[T5C]_[T6G]_[A7C]_F5.1_[T9A]_[A10C]_T5.1 (ssRNA)
RNA: B1 RNA with U28C, U29G, G30C, G31U, U32A, U33C
B25: Ic_S4_P5E.1_K5.1_C5.1_H5.1_A5.1_[T5C]_[T6A]_[A7G]_F5.1_[T9G]_[A10C]_T5.1 (ssRNA)
RNA: B1 RNA with U28C, U29A, G31U, U32G, U33C
B26: Ic_S4_P5E.1_K5.1_C5.1_H5.1_A5.1_[T6A]_[A7T]_F5.1_[T8A]_[T9C]_[A10G]_T5.1 (ssRNA)
RNA: B1 RNA with U29A, G30U, G31A, U32C, U33G
B27: Ic_S4_P5E.1_K5.1_C5.1_H5.1_A5.1_[A7G]_F5.1_[T8C]_[T9C]_[A10T]_T5.1 (ssRNA)
RNA: B1 RNA with G31C, U32C

Biological target: T1, PUF4 RNA-binding domain (Saccharomyces cerevisiae, UniProt P25339 537-888)
T1 sequence: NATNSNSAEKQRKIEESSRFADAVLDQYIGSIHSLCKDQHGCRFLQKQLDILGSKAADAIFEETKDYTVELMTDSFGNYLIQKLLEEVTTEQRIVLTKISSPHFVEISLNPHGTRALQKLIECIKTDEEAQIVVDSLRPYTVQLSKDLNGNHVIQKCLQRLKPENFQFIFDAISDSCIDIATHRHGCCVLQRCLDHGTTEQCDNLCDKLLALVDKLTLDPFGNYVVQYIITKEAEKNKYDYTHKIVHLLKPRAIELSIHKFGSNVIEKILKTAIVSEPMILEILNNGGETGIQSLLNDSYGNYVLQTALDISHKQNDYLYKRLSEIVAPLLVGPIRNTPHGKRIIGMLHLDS
Test: Mg; RNA-MaP; 20 mM Na-HEPES pH 7.4, 30 mM KOAc, 0.75 mM MgCl2, 0.1% Tween-20, 5% glycerol, 0.1 mg/mL BSA, 2 mM DTT; 25 C; 0.0125-409.6 nM protein
Conditions: tags: N-His6-TEV cleaved; C-SNAP kept, Cy3B-labelled; label: tethered on chip by stalled RNA polymerase

Row | Binder | Kd
1 | B1 | 881 nM
2 | B2 | > 2300 nM
3 | B3 | 946 nM
4 | B4 | 158 nM
5 | B5 | 34 nM
6 | B6 | 56.4 nM
7 | B7 | 5 nM
8 | UCUCUUUGUAUAGUGUCUCUU (ssRNA) [Ib_S1_P4E.1_K4.1_C4.1_H4.1_A4.1_[T7G]_F4.1_[A9G]_T4.1] | 13 nM
9 | B8 | 15.6 nM
10 | B9 | 74.3 nM
11 | B10 | 24.4 nM
12 | B11 | 432 nM
13 | B12 | 3.61 nM
14 | B13 | 26.1 nM
15 | B14 | 28.6 nM
16 | B15 | 17.2 nM
17 | B16 | 172 nM
18 | B17 | 976 nM
19 | UCUCUUUGUAUACUGUCUCUU (ssRNA) [Ib_S1_P4E.1_K4.1_C4.1_H4.1_A4.1_[T7C]_F4.1_[A9G]_T4.1] | 5.39 nM
20 | B18 | 27.4 nM
21 | B19 | 1010 nM
22 | B20 | 662 nM
23 | B21 | 10.9 nM
24 | B22 | 476 nM
25 | B23 | 7.13 nM
26 | B24 | 6.66 nM
27 | B25 | 10.6 nM
28 | B26 | 6.59 nM
29 | B27 | 402 nM
